Data taken from patent publication US20250333496A1 (Novo Nordisk, published 2025).
Each block holds one binder with its values, some of them ahead of it.

Legend:
[1] = biological target: T1, human IL-6 (mature hIL-6) (human, UniProt P05231 30-212); experiment: cell-based or functional assay
[2] = biological target: T1, human IL-6 (mature hIL-6); experiment: SPR (format not stated)
[3] = biological target: T1, human IL-6 (mature hIL-6); experiment: cell-based or functional assay; remark: listed apart in the source
[4] = biological target: T1, human IL-6 (mature hIL-6); experiment: cell-based or functional assay; remark: listed apart in the source
[5] = biological target: T2, recombinant human HPC4-tagged IL-6 (human, UniProt P05231 30-212); experiment: SPR, HPC4-IL-6 captured on anti-HPC4 antibody, VHH injected, 25 C, 1:1 model
T2 construct: captured on an anti-HPC4 antibody in SPR; also called HPC4-human IL6
Method: Binding of purified anti-IL-6 VHHs to recombinant human HPC4-tagged IL-6 (SEQ ID NO: 98) was probed by Surface Plasmon Resonance (SPR).
IL-6 was captured at a flow rate of 10 μL/min for 30 seconds.
Subsequently, concentration series of VHH polypeptides according to Table 33 were injected at a flow rate of 50 μL/min for 200 seconds to allow for binding to […] followed by 600 seconds running buffer (10 mM HEPES, 150 mM NaCl, 5 mM CaCl₂, 0.05% (v/v) Surfactant P20, 1 mg/mL bovine serum albumin, pH 7.4) injection allowing dissociation from IL-6. The running buffer was also used for dilution of anti-IL-6 VHHs and IL-6. Regeneration of the chip was achieved using a regeneration buffer consisting of 50 mM EDTA in running buffer without CaCl₂, 30 seconds contact time, and a 30 μL/min flow rate applied twice to the surface. The binding data were collected at 25° C. at either a Biacore instrument (Cytiva AB, Uppsala) or a Bruker SPR32 (Bruker Daltonics). Data were analysed according to a 1:1 model using either BiaEvaluation or Biacore Insight Evaluation (Cytiva AB, Uppsala) or Bruker Analyser (Bruker Daltonics).

[6] = biological target: T1, human IL-6 (mature hIL-6); experiment: cell-based or functional assay; remark: listed apart in the source

T1 sequence (P05231 30-212): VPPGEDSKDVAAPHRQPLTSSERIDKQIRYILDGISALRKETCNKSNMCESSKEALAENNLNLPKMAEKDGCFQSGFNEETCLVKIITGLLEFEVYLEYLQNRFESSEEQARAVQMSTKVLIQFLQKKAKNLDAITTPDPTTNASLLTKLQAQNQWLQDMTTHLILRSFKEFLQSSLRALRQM
T2 sequence (P05231 other isoform, or with tags, fused parts or gaps limits assumed): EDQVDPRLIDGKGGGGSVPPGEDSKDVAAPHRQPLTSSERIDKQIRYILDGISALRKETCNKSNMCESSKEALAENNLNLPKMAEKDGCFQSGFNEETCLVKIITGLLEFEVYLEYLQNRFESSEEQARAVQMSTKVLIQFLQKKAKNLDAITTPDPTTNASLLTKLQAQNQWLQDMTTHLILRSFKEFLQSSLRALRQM

B1: Polypeptide_1 (VHH)
VHH: QVQLVESGGDLVQPGGSLRLSCTTSGRTFSSYAMGWFRQAPGKEREFVADIGENADNRWYAHSVKGRFTISRDNAKNTVYLQMNSLKPEDTAVYYCAADRYGVGGGAQGYYDSWGQGTQVTVSS
notes: VHH_2.1 with C-terminal His tag extension E1; also called [VHH_2.1]-E1
Reporter gene-assay [pM] [1]: 47.4 pM
Kd [2]: 0.627 nM

B7: Polypeptide_8 (VHH)
VHH: QVQLVESGGGLVQPGGSLRLSCAASGFTFSSYWMYWVRQAPGKGLEWVSGINTGGSTPDYADSVKGRFTISRDNAKNTLYLQMNSLRPEDTAVYYCAADTPRSFRLNHYSPLGQGTQVTVSS
notes: VHH_2.8 with C-terminal His tag extension E1; also called [VHH_2.8]-E1
Reporter gene-assay [pM] [1]: 36.8 pM
Kd [2]: 0.816 nM

B8: Polypeptide_2 (VHH)
VHH: EVQLVESGGGLVQPGGSLRLSCAASGFTFSNYWMYWVRQAPGKGLEWVSGINTGGSTPDYADSVKDRFTISRDNAKNTLYLQMNSLRPADTAVYYCAADTPRSFRLNHYAPLGQGTQVTVSS
notes: VHH_2.2 with C-terminal His tag extension E1; also called [VHH_2.2]-E1
Reporter gene-assay [pM] [1]: 20.7 pM
Kd [2]: 1.31 nM

B9: Polypeptide_5 (VHH)
VHH: QLQLVESGGGLVQPGGSLRLSCAASGFTFSNYWMYWVRQAPGKGLEWVSGINTGGSTPDYADSVKGRFTISRDNAKNTLYLQMNSLRPEDTAVYYCAADTPRVFRLDHYSPLGQGTQVTVSS
notes: VHH_2.5 with C-terminal His tag extension E1; also called [VHH_2.5]-E1
Reporter gene-assay [pM] [1]: 23.2 pM
Kd [2]: 0.696 nM

B14: Polypeptide_34 (VHH)
VHH: EVQLVESGGGLVQAGGSLRLSCTASGGTFSEYAMAWFRQAPGKEREFVTDIGESGGTWYADSVKGRFTISRDNAKNTVYLQMNSLRPEDTAVYYCAADSYGVGGGAERYYDSWGQGTQVTVSS
notes: VHH_1.8 with C-terminal His tag extension E1; also called [VHH_1.8]-E1
Reporter gene-assay [pM] [1]: 43.6 pM
IC 50 (nM), reporter gene assay, 0% HSA [4]: 0.066 nM
IC 50 (nM), reporter gene assay, 1% HSA [4]: 0.046 nM
Kd [2]: ~0.0136 nM
Kd [5]: 0.0136 nM
kon [5]: 2.88e+07 M⁻¹ s⁻¹

B20: Polypeptide_4 (VHH)
VHH: QVQLQESGGGLVQAGGSLRLSCTVSGRTFSTYAMGWFRQAPGKEREFVADINWNSDNLWYADSVKGRFTISRDNAKNTMYLQMNSLKPEDTAVYYCAVDSYGVGGGKPEYYDSWGQGTQVTVSS
notes: VHH_2.4 with C-terminal His tag extension E1; also called [VHH_2.4]-E1
Reporter gene-assay [pM] [1]: 198 pM
Kd [2]: 1.46 nM

B21: Compound 14 (VHH)
VHH: EVQLVESGGGLVQPGGSLKLSCTTSGRRFSEYAVGWFRQAPGKEREFVADIGEQAENTWYAESVLGRFTISRDDAKNTVYLEMDGLKPEDTAVYYCAADKYGVGGNAQGYYDSWGQGTQVTVSS
modifications: Chem. 24 (C16 fatty acid substituent) on Cys in position 4 of the extension (SEQ ID NO: 161)
IC50 (nM) mean, STAT3-luc reporter gene assay [6]: 0.041 nM
Relative IC50 to Polypeptide_29 [6]: 1.1 fold

B23: Compound 15 (VHH)
VHH: EVQLVESGGGLVQPGGSLKLSCTTSGRRFSEYAVGWFRQAPGKEREFVADIGEQAENTWYAESVLGRFTISRDDAKNTVYLEMDGLKPEDTAVYYCAADKYGVGGNAQGYYDSWGQGTQVTVSS
modifications: Chem. 26 (C18 fatty acid substituent) on Cys in position 4 of the extension (SEQ ID NO: 161)
IC50 (nM) mean, STAT3-luc reporter gene assay [6]: 0.046 nM
Relative IC50 to Polypeptide_29 [6]: 1.3 fold

B24: Compound 16 (VHH)
VHH: EVQLVESGGGLVQPGGSLKLSCTTSGRRFSEYAVGWFRQAPGKEREFVADIGEQAENTWYAESVLGRFTISRDDAKNTVYLEMDGLKPEDTAVYYCAADKYGVGGNAQGYYDSWGQGTQVTVSS
modifications: Chem. 27 (C20 fatty acid substituent) on Cys in position 4 of the extension (SEQ ID NO: 161)
IC50 (nM) mean, STAT3-luc reporter gene assay [6]: 0.054 nM
Relative IC50 to Polypeptide_29 [6]: 1.6 fold

B25: Compound 17 (VHH)
VHH: EVQLVESGGGLVQPGGSLKLSCTTSGRRFSEYAVGWFRQAPGKEREFVADIGEQAENTWYAESVLGRFTISRDDAKNTVYLEMDGLKPEDTAVYYCAADKYGVGGNAQGYYDSWGQGTQVTVSS
modifications: Chem. 24 (C16 fatty acid substituent) on Cys in position 4 and on Cys in position 6 of the extension (SEQ ID NO: 162)
IC50 (nM) mean, STAT3-luc reporter gene assay [6]: 0.04 nM
Relative IC50 to Polypeptide_29 [6]: 1 fold

Further lines, results first:

Reporter gene-assay [pM] [1]: 42.1 pM
Kd [2]: 0.631 nM
B2: Polypeptide_7 (VHH)
VHH: EVQLVESGGRWVQPGASLRLSCTTSGRTFSSYAMGWFRQAPGKEREFVADIGENADNRWYAHSVKGRFTISRDNAKNTVYLQMNSLKPEDTAVYYCAADRYGVGGGAQGYYDSWGQGTQVTVSS
notes: VHH_2.7 with C-terminal His tag extension E1; also called [VHH_2.7]-E1

Reporter gene-assay [pM] [1]: 72.9 pM
Kd [2]: 0.396 nM
B3: Polypeptide_14 (VHH)
VHH: QLQLVESGGGSVQVGDSLRLSCTFSGRSFSSYAMGWFRQAPGKEREFVADIGENADNTWYAHSVKGRFTISRDNAKNTVYLQMNSLKPEDTAVYYCAADSYGVGGGAQGYYDSWGQGTQVTVSS
notes: VHH_2.14 with C-terminal His tag extension E1; also called [VHH_2.14]-E1

Reporter gene-assay [pM] [1]: 52.4 pM
Kd [2]: 0.001 nM
B4: Polypeptide_16 (VHH)
VHH: EVQLVESGGGLVQPGGSLSLSCTASGRTFSSYAMGWFRQAPGKEREFVADIGENADNRWYAHSVKGRFTISRDNAKNTVYLQMNSLKPEDTAVYYCAADRYGVGGGAQGYYDSWGQGTQVTVSS
notes: VHH_2.16 with C-terminal His tag extension E1; also called [VHH_2.16]-E1

Reporter gene-assay [pM] [1]: 40.6 pM
IC50 (nM), STAT3-luc reporter gene assay [3]: 0.185 nM
Relative IC50 to Reference Polypeptide_29 [3]: 5.4 fold
IC 50 (nM), reporter gene assay, 0% HSA [4]: 0.117 nM
IC 50 (nM), reporter gene assay, 1% HSA [4]: 0.064 nM
Kd [2]: 0.001 nM
B5: Polypeptide_19 (VHH)
VHH: QLQLVESGGGWVQPGGSLKLSCTTSGRTFSSYAVGWFRQAPGKEREFVADIGENADNTWYAHSVKGRFTISRDNAKNTVYLQMNSLKPEDTAVYYCAADSYGVGGGAQGYYDSWGQGTQVTVSS
notes: VHH_1.11 with C-terminal His tag extension E1; also called [VHH_1.11]-E1

Reporter gene-assay [pM] [1]: 62.1 pM
Kd [2]: 0.358 nM
B6: Polypeptide_33 (VHH)
VHH: EVQLVESGGGLVQPGGSLRLSCTTSGRTFSSYAVGWFRQAPGKEREFVADIGENADNTWYAHSVKGRFTISRDNAKNTVYLQMNSLKPEDTAVYYCAADSYGVGGGAQGYYDSWGQGTQVTVSS
notes: VHH_1.9 with C-terminal His tag extension E1; also called [VHH_1.9]-E1

Reporter gene-assay [pM] [1]: 33.7 pM
Kd [2]: 0.903 nM
B10: Polypeptide_9 (VHH)
VHH: QVQLVESGGGLVQPGGSLRLSCAASGFTFSNYWMYWVRQAPGKGLEWVSGIDTRGSTPDYADSVKGRFTISRDNAKSTFYLQMNSLRPEDTAVYYCATDTPRSFRLYHYVPLGQGTQVTVSS
notes: VHH_2.9 with C-terminal His tag extension E1; also called [VHH_2.9]-E1

Reporter gene-assay [pM] [1]: 18.5 pM
IC 50 (nM), reporter gene assay, 0% HSA [4]: 0.02 nM
IC 50 (nM), reporter gene assay, 1% HSA [4]: 0.02 nM
Kd [2]: 0.705 nM
B11: Polypeptide_18 (VHH)
VHH: EVQLVESGGGLVQPGGSLRLSCAASGFTFSNYWMYWVRQAPGKGLEWVSGINTGGSTPDYADSVKGRFAISRDNAKNTLYLQMNSLRPEDTAVYYCAADTPRVFRLDHYSPLGQGTQVTVSS
notes: VHH_1.16 with C-terminal His tag extension E1; also called [VHH_1.16]-E1

Reporter gene-assay [pM] [1]: 114 pM
Kd [2]: 1.03 nM
B12: Polypeptide_10 (VHH)
VHH: QVQLQESGGGLVQAGGSLRLSCTVSGRTFSTYAMGWFRQAPGKEREFVADINWNSDNIWYADSVKGRFTISRDNAKNVMYLQMNSLKPEDTAVYYCAADSYGVGGGKEEYYDSWGQGTQVTVSS
notes: VHH_2.10 with C-terminal His tag extension E1; also called [VHH_2.10]-E1

Reporter gene-assay [pM] [1]: 98.2 pM
Kd [2]: 0.0701 nM
B13: Polypeptide_11 (VHH)
VHH: EVQLVESGGGLVQAGGSLRLSCTASGRSFSSYAMGWFRQAPGKEREFVADIGVNPDNTWYADSAKGRFTISRDNAKNTMYLQMNSLKPEDTAVYYCAADSYGVGGGAERYYDSWGQGTQVTVSS
notes: VHH_2.11 with C-terminal His tag extension E1; also called [VHH_2.11]-E1

Reporter gene-assay [pM] [1]: 16.8 pM
Kd [2]: 0.001 nM
B15: Polypeptide_15 (VHH)
VHH: QVQLQESGGGLVQAGGSLRLSCTASGGTFSEYAMAWFRQAPGKEREFVTDIGESGGTWYADSVKGRFTISRDNAKNTVYLQMNSLRPEDTAVYYCAADSYGVGGGAERYYDSWGQGTQVTVSS
notes: VHH_2.15 with C-terminal His tag extension E1; also called [VHH_2.15]-E1

Reporter gene-assay [pM] [1]: 24.6 pM
Kd [2]: 0.001 nM
B16: Polypeptide_35 (VHH)
VHH: QVQLVESGGGLVQAGGSLRLSCTASGGTFGEYAMAWFRQAPGKEREFVTDIGESGGTWYADSVKGRFTISRDNAKNTVYLQMNSLRPEDTAVYYCAADSYGVGGGAERYYDSWGQGTQVTVSS
notes: VHH_1.10 with C-terminal His tag extension E1; also called [VHH_1.10]-E1

Reporter gene-assay [pM] [1]: 77.4 pM
Kd [2]: 0.001 nM
B17: Polypeptide_12 (VHH)
VHH: QVQLVESGGGLVQAGGSLRLSCTTSGRTFSSYAMAWFRQAPGKDREFVADIGENSDNIWYADSVKGRFTISRDNAKNTILLQMNSLKPEDTAVYYCAADSYGVGGGKPEYYDSWGQGAQVTVSS
notes: VHH_2.12 with C-terminal His tag extension E1; also called [VHH_2.12]-E1

Reporter gene-assay [pM] [1]: 80.9 pM
Kd [2]: 0.001 nM
B18: Polypeptide_13 (VHH)
VHH: EVQLVESGGGLVQAGGPLRLSCTVSGRTFSTYAMGWFRQAPGKEREFVADINWNSDNIWYADSVKGRFTISRDNAKNVMYLQMNSLKPEDTAVYYCAADSYGVGGGKEEYYDSWGQGTQVTVSS
notes: VHH_2.13 with C-terminal His tag extension E1; also called [VHH_2.13]-E1

Reporter gene-assay [pM] [1]: 84.1 pM
Kd [2]: 0.257 nM
B19: Polypeptide_17 (VHH)
VHH: QVQLVESGGGLVQAGGSLRLSCTVSGRTFSTYAMGWFRQAPGKEREFVADINWNSDNIWYADSVKGRFTISRDNAKNVMYLQMNSLKPEDTAVYYCAADSYGVGGGKEEYYDSWGQGTQVTVSS
notes: VHH_2.17 with C-terminal His tag extension E1; also called [VHH_2.17]-E1

Reporter gene-assay [pM] [1]: 73.4 pM
Kd [2]: 1.52 nM
B22: Polypeptide_6 (VHH)
VHH: QVQLQESGGGLVQAGGSLRLSCTTSGRTFSDYAMAWFRQAPGKDREFVADIGTNSENTWYAESVKGRFTISRDNTKNTIYLQMNSLKPEDTAVYYCAADSYGVGGGKQEYYDSWGQGAQVTVSS
notes: VHH_2.6 with C-terminal His tag extension E1; also called [VHH_2.6]-E1
